The results in this text go back to PMC6233201 (Scientific Reports, 2018).

The series concerns the molecule itself. The series is described as follows: SEC; gel filtration (Superdex 200 10/300 GL) of the Ni-NTA purified DEDs; self-association read from the elution position (monomer, dimer, oligomer peaks).

B1: wild-type death effector domains (DEDs) of human caspase-8 (residues 1-188) with a C-terminal His6 tag (domain or fragment, UniProt Q14790-1 1-188, looked up)
chain: MDFSRNLYDIGEQLDSEDLASLKFLSLDYIPQRKQEPIKDALMLFQRLQEKRMLEESNLSFLKELLFRINRLDLLITYLNTRKEEMERELQTPGRAQISAYRVMLYQISEEVSRSELRSFKFLLQEEISKCKLDDDMNLLDIFIEMEKRVILGEGKLDILKRVCAQINKSLLKIINDYEEFSKERSSS
notes: tandem death effector domains (DED) of human caspase-8, residues 1-188, UniProt Q14790-1; The soluble protein was mixed with E. coli slyD after purification; also called DED^WT; wild-type DEDs; source: E. coli Rosetta (DE3) pLysS, pET-21b, purified (Ni-NTA, gel filtration); very low yields of soluble protein; not shown: His6, C-terminal, kept
Take B1: the binding result is recorded as “binds”.
